In patent US20240116985A1, “STAPLED PEPTIDES AND METHODS THEREOF” (priority 2020, published 2024):
Starred links: 1 amine or outer side, 2 acyl side, 3 side chain; linkers in the order of their positions; H or OH if unused. Positions of bridges follow the written chain, without caps; N, C: chain ends. Non-standard residues stand in square brackets, D forms with d. Primed or numbered codes have the meaning given here. PyrS2″ = (S)-3-amino-1-((pent-4-en-1-yloxy)carbonyl)pyrrolidine-3-carboxylic acid (stapling residue), C=CCCCOC(=O)N1CC[C@@](N[*:1])(C(=O)[*:2])C1; B5(4) = 2,2-bis(4-pentenyl)glycine = 2-amino-2-(pent-4-en-1-yl)hept-6-enoic acid (stitching residue), C=CCCCC(CCCC=C)(N[*:1])C(=O)[*:2]; TfeGA = (S)-2-amino-3-((carboxymethyl)(2,2,2-trifluoroethyl)amino)propanoic acid, O=C([C@H](CN(CC(=O)[*:3])CC(F)(F)F)N[*:1])[*:2]; PyrS2 = (S)-3-amino-1-((pent-4-en-1-yloxy)carbonyl)pyrrolidine-3-carboxylic acid, C=CCCCOC(=O)N1CC[C@@](N[*:1])(C(=O)[*:2])C1; B5(12) = 2-amino-2-(pent-4-en-1-yl)hept-6-enoic acid (two olefin side chains), C=CCCCC(CCCC=C)(N[*:1])C(=O)[*:2]; B5(3) = 2,2-bis(4-pentenyl)glycine (stitching residue), C=CCCCC(CCCC=C)(N[*:1])C(=O)[*:2]; B5 = 2-amino-2-(pent-4-en-1-yl)hept-6-enoic acid, C=CCCCC(CCCC=C)(N[*:1])C(=O)[*:2]; Phe(4-COOH) = N[C@@H](Cc1ccc(C(=O)O)cc1)C(=O)O; Phe(2-Cl) = N[C@@H](Cc1ccccc1Cl)C(=O)O; 2Nal = N[C@@H](Cc1ccc2ccccc2c1)C(=O)O; Bta = N[C@@H](Cc1csc2ccccc12)C(=O)O; αAllylPro = C=CC[C@@]1(C(=O)O)CCCN1; tBuAla = CC(C)(C)C[C@H](N)C(=O)O; 3Thi = N[C@@H](Cc1ccsc1)C(=O)O; S8 = C=CCCCCCC[C@](C)(N)C(=O)O

How the values were obtained:
[1] = target: full-length beta-Catenin (Uniprot ID P35222) (Homo sapiens (Human)) (UniProt P35222); assay: fluorescence polarization competition, peptide titrated against full-length beta-catenin + 5FAM-TCF4(10-53)
Target sequence in this assay (P35222 2-781 limits assumed): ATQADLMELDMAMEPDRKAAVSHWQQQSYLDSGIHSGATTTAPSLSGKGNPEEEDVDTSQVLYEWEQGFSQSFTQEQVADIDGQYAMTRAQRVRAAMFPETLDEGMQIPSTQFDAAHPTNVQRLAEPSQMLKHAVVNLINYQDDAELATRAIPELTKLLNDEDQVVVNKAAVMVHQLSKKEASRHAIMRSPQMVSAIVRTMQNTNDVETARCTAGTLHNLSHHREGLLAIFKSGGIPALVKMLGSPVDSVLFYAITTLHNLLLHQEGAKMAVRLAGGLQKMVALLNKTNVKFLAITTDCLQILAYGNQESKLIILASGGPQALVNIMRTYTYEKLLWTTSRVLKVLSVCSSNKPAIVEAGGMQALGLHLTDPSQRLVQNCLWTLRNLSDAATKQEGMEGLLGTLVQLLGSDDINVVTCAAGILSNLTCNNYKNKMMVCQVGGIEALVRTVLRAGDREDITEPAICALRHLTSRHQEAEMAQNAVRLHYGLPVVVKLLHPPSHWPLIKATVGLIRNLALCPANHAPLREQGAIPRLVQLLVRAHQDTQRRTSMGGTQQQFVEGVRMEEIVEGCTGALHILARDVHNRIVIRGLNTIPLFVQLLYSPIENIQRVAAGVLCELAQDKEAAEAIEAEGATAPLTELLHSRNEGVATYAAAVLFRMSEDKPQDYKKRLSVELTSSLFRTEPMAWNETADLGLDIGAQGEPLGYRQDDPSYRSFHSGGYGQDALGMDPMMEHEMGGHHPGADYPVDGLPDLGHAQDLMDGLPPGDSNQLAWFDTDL

[2] = target: Bcat-Halo (UniProt P35222); assay: NanoBRET Abs IC50; Bcat-Halo/TCF4-Luc engagement in HEK293 cells
[3] = target: full-length beta-Catenin (Uniprot ID P35222) (Homo sapiens (Human)) (UniProt P35222); assay: fluorescence polarization competition; 5FAM-TCF4 10-53 probe on full-length beta-catenin
Target sequence in this assay (P35222 whole entry, one chain of several): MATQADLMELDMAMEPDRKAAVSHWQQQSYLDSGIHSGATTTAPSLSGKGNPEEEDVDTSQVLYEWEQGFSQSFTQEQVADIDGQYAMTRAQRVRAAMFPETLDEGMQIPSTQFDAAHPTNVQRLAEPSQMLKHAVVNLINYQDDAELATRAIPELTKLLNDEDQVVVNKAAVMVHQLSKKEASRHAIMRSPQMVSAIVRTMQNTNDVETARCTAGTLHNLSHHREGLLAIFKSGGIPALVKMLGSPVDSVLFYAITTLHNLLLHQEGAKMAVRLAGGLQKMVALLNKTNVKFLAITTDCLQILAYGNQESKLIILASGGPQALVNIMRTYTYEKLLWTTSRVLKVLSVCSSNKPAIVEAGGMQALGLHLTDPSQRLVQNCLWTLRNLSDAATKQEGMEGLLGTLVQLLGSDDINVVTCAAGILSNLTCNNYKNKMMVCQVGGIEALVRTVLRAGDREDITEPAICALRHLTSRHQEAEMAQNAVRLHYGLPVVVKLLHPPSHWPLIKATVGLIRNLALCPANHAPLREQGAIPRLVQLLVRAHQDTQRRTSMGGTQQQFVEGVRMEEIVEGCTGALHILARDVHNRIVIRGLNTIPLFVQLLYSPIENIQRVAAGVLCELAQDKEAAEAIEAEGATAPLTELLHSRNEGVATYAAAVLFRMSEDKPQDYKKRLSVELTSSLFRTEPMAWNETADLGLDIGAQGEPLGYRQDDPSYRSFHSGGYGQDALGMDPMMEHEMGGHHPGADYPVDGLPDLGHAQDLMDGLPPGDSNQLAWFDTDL

[4] = target: full-length beta-Catenin (Uniprot ID P35222) (Homo sapiens (Human)) (UniProt P35222); assay: AlphaScreen competition; full-length beta-catenin with biotin-TCF4(10-53) probe as competitor
Target sequence in this assay (P35222 2-781 limits assumed): as the sequence (P35222 2-781 limits assumed) above

[5] = target: full-length beta-Catenin (Uniprot ID P35222) (Homo sapiens (Human)) (UniProt P35222); assay: fluorescence polarization competition; 10 nM full-length beta-catenin + 10 nM 5FAM-TCF4(10-53) as competitor probe; peptide titrated (top concentration 10 uM)
Target sequence in this assay (P35222 2-781 limits assumed): as above

[6] = target: beta-catenin (full-length, Uniprot ID P35222) (Homo sapiens (Human)) (UniProt P35222); assay: fluorescence polarization competition, displacement of 5FAM-TCF4 10-53 from full-length beta-catenin
Target sequence in this assay (P35222 2-781 limits assumed): as above

[7] = target: full-length beta-Catenin (Uniprot ID P35222) (Homo sapiens (Human)) (UniProt P35222); assay: AlphaScreen competition vs biotin-TCF4(10-53) on full-length beta-catenin
Target sequence in this assay (P35222 whole entry, one chain of several): as the sequence (P35222 whole entry, one chain of several) above

[8] = target: beta-catenin (full-length, Uniprot ID P35222) (Homo sapiens (Human)) (UniProt P35222); assay: fluorescence polarization competition; full-length beta-catenin; competitor 5FAM-TCF4(10-53) probe
Target sequence in this assay (P35222 whole entry, one chain of several): as above

[9] = target: full-length beta-Catenin (Uniprot ID P35222) (Homo sapiens (Human)) (UniProt P35222); assay: FP competition vs 5FAM-TCF4(10-53) probe on full-length beta-catenin
Target sequence in this assay (P35222 whole entry, one chain of several): as above

[10] = target: full-length beta-Catenin (Uniprot ID P35222) (Homo sapiens (Human)) (UniProt P35222); assay: fluorescence polarization competition, full-length beta-catenin with 5FAM-TCF4(10-53) probe
Target sequence in this assay (P35222 2-781 limits assumed): as the sequence (P35222 2-781 limits assumed) above

[11] = target: full-length beta-Catenin (Uniprot ID P35222) (Homo sapiens (Human)) (UniProt P35222); assay: fluorescence polarization competition; full-length beta-catenin, 5FAM-TCF4(10-53) probe
Target sequence in this assay (P35222 2-781 limits assumed): as above

[12] = target: full-length beta-Catenin (Uniprot ID P35222) (Homo sapiens (Human)) (UniProt P35222); assay: fluorescence polarization competition vs 5FAM-TCF4(10-53) on full-length beta-catenin
Target sequence in this assay (P35222 whole entry, one chain of several): as the sequence (P35222 whole entry, one chain of several) above

[13] = target: full-length beta-Catenin (Uniprot ID P35222) (Homo sapiens (Human)) (UniProt P35222); assay: fluorescence polarization competition; peptide titrated against full-length beta-catenin + 5FAM-TCF4(10-53) probe
Target sequence in this assay (P35222 2-781 limits assumed): as the sequence (P35222 2-781 limits assumed) above

[14] = target: full-length beta-Catenin (Uniprot ID P35222) (Homo sapiens (Human)) (UniProt P35222); assay: fluorescence polarization competition; 10 nM full-length beta-catenin; competitor 5FAM-TCF4 10-53 probe
Target sequence in this assay (P35222 whole entry, one chain of several): as the sequence (P35222 whole entry, one chain of several) above

[15] = target: Bcat-Halo (UniProt P35222); assay: NanoBRET Abs IC50 (absolute IC50) in HEK293 cells, Bcat-Halo / TCF4-Luc engagement
[16] = target: full-length beta-Catenin (Uniprot ID P35222) (Homo sapiens (Human)) (UniProt P35222); assay: fluorescence polarization competition; 10 nM full-length beta-catenin with 10 nM 5FAM-TCF4 (residues 10-53) probe as competitor
[17] = target: full-length beta-Catenin (Uniprot ID P35222) (Homo sapiens (Human)) (UniProt P35222); assay: fluorescence polarization competition; displacement of 5FAM-TCF4(10-53) from full-length beta-catenin
Target sequence in this assay (P35222 whole entry, one chain of several): as above

[18] = target: Bcat-Halo (beta-catenin HaloTag construct expressed in HEK293 cells) (UniProt P35222); assay: NanoBRET in HEK293 cells, percent inhibition at 10 uM peptide; Bcat-Halo with TCF4-Luc as competitor
Bcat-Halo (beta-catenin HaloTag construct expressed in HEK293 cells), sequence (P35222 whole entry): as the sequence (P35222 whole entry, one chain of several) above

Bcat-Halo, sequence (P35222 whole entry, the tested form may be a part): as the sequence (P35222 whole entry, one chain of several) above

Ac-[αAllylPro]D[tBuAla][B5]DDAAFN[PyrS2″][3Thi][Bta][dN]-NH2 (staple 1-4, 4-11) [I-818]
EC50 [1]: 6 nM
IC50 [2]: 15000 nM
IC50 [3]: 6 nM

Ac-[αAllylPro]DA[B5(12)]DEAAFV[S8]F[2Nal]-NH2 (staple 1-4, 4-11) [I-141]
EC50 [4]: 5450 nM

Ac-[αAllylPro]D[tBuAla][B5(4)]NTAAFF[PyrS2″][3Thi][Bta]Q-NH2 (staple 1-4, 4-11) [I-1740]
IC50 [5]: 10000 nM

Ac-[αAllylPro]DA[B5(4)]D[TfeGA]AAFV[S8]F[Bta]Q-NH2 (staple 1-4, 4-11) [I-293: Ac-PL3-Asp-Ala-B5-Asp-TfeGA-Ala-Ala-Phe-Val-S8-Phe-BztA-Gln-NH2]
IC50 [6]: 140 nM

Ac-[αAllylPro]DA[B5(4)]D[2Nal]AAFQ[S8]F[Bta]Q-NH2 (staple 1-4, 4-11) [I-295]
EC50 [7]: 1180 nM
IC50 [8]: 5000 nM
EC50 [9]: 5000 nM

Ac-[αAllylPro]D[tBuAla][B5(3)]D[TfeGA]AAFF[S8][Phe(2-Cl)][Bta]Q-NH2 (staple 1-4, 4-11) [I-931]
EC50 [10]: 221 nM
IC50 [11]: 221 nM

Ac-[αAllylPro]DA[B5(4)]DDAAFV[S8][Phe(4-COOH)][Bta]Q-NH2 (staple 1-4, 4-11; also: earlier-eluting staple isomer) [I-339]
IC50 [12]: 5000 nM
EC50 [13]: 5000 nM

Ac-[αAllylPro]D[tBuAla][B5(3)]D[TfeGA]AAFF[PyrS2″][Phe(2-Cl)][Bta]Q-NH2 (staple 1-4, 4-11) [I-923]
EC50 [10]: 27 nM
IC50 [14]: 27 nM
IC50 [15]: 6000 nM

Ac-[αAllylPro]D[tBuAla][B5(4)]DLAAFN[PyrS2][3Thi][Bta]Q-NH2 (staple 1-4, 4-11) [I-846]
EC50 [16]: 35 nM
IC50 [17]: 56 nM
NanoBRET % inh @ 10 uM [18]: 4.3%
